T1: Ste50-mCherry (budding yeast (S288C background), UniProt P25344 1-346)
T1 construct: Ste50, SAM domain protein, budding yeast; tagged at the chromosomal locus; source: expressed from its chromosomal locus in live yeast cells (S288C background); not shown: mCherry, C-terminal, kept
T1 sequence (looked up): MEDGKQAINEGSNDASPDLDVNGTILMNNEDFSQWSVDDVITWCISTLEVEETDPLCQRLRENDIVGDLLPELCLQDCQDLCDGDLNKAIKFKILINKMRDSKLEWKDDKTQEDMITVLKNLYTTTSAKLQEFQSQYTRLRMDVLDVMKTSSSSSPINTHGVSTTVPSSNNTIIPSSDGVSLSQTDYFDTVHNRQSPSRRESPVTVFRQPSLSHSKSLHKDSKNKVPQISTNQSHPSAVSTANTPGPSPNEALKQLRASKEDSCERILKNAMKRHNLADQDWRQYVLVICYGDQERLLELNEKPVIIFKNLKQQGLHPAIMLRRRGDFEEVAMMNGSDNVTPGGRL


Assays:
[1] = biological target: the molecule itself; test: photon counting histogram (1dPCH), constrained two-component fit; live yeast cells, cycling; monomer brightness fixed, oligomer brightness and numbers freely varied; subunits estimated from a linear extrapolation of GFP brightness
[2] = biological target: the molecule itself; test: photon counting histogram (1dPCH), constrained two-component fit; live yeast cells at high salt (NaCl); monomer brightness fixed, oligomer brightness and numbers freely varied; subunits estimated from a linear extrapolation of GFP brightness
[3] = biological target: the molecule itself; test: photon counting histogram (1dPCH), constrained two-component fit; live yeast cells treated with α-factor; monomer brightness fixed, oligomer brightness and numbers freely varied; subunits estimated from a linear extrapolation of GFP brightness
[4] = biological target: T1, Ste50-mCherry; test: two-dimensional photon counting histogram (2dPCH); live yeast cells with Ste11-GFP and Ste50-mCherry, cytosolic pool; 50 µs bins; two-component fit; cycling cells, also after α-factor or NaCl; settings: partners not purified

Row | stoichiometry N [4] | Binder | stoichiometry N [1] | stoichiometry N [2] | stoichiometry N [3]
1 |  | Ste50-GFP (natural protein, budding yeast (S288C background), UniProt P25344 1-346, looked up, Ste50, SAM domain protein, budding yeast; tagged at the chromosomal locus; source: expressed from its chromosomal locus in live yeast cells (S288C background); not shown: GFP, C-terminal, kept) MEDGKQAINEGSNDASPDLDVNGTILMNNEDFSQWSVDDVITWCISTLEVEETDPLCQRLRENDIVGDLLPELCLQDCQDLCDGDLNKAIKFKILINKMRDSKLEWKDDKTQEDMITVLKNLYTTTSAKLQEFQSQYTRLRMDVLDVMKTSSSSSPINTHGVSTTVPSSNNTIIPSSDGVSLSQTDYFDTVHNRQSPSRRESPVTVFRQPSLSHSKSLHKDSKNKVPQISTNQSHPSAVSTANTPGPSPNEALKQLRASKEDSCERILKNAMKRHNLADQDWRQYVLVICYGDQERLLELNEKPVIIFKNLKQQGLHPAIMLRRRGDFEEVAMMNGSDNVTPGGRL | 5 to 6 | 3 to 4 | ~4
2 | 2 Ste11 per Ste50 | Ste11-GFP (natural protein, budding yeast (S288C background), UniProt P23561 1-717, looked up, Ste11, MAP kinase kinase kinase with a SAM domain, budding yeast; tagged at the chromosomal locus; source: expressed from its chromosomal locus in live yeast cells (S288C background); not shown: GFP, C-terminal, kept) MEQTQTAEGTDLLIGDEKTNDLPFVQLFLEEIGCTQYLDSFIQCNLVTEEEIKYLDKDILIALGVNKIGDRLKILRKSKSFQRDKRIEQVNRLKNLMEKVSSLSTATLSMNSELIPEKHCVIFILNDGSAKKVNVNGCFNADSIKKRLIRRLPHELLATNSNGEVTKMVQDYDVFVLDYTKNVLHLLYDVELVTICHANDRVEKNRLIFVSKDQTPSDKAISTSKKLYLRTLSALSQVGPSSSNLLAQNKGISHNNAEGKLRIDNTEKDRIRQIFNQRPPSEFISTNLAGYFPHTDMKRLQKTMRESFRHSARLSIAQRRPLSAESNNIGDILLKHSNAVDMALLQGLDQTRLSSKLDTTKIPKLAHKRPEDNDAISNQLELLSVESGEEEDHDFFGEDSDIVSLPTKIATPKNWLKGACIGSGSFGSVYLGMNAHTGELMAVKQVEIKNNNIGVPTDNNKQANSDENNEQEEQQEKIEDVGAVSHPKTNQNIHRKMVDALQHEMNLLKELHHENIVTYYGASQEGGNLNIFLEYVPGGSVSSMLNNYGPFEESLITNFTRQILIGVAYLHKKNIIHRDIKGANILIDIKGCVKITDFGISKKLSPLNKKQNKRASLQGSVFWMSPEVVKQTATTAKADIWSTGCVVIEMFTGKHPFPDFSQMQAIFKIGTNTTPEIPSWATSEGKNFLRKAFELDYQYRPSALELLQHPWLDAHII |  |  | 
